Source: paper PMC5383425, “Differential CLE peptide perception by plant receptors implicated from structural and functional analyses of TDIF-TDR interactions” (PLoS ONE, 2017)
“Also recorded” adds a separate entry of the source. Square brackets hold non-standard residues; d marks the D form. Ends that are not written are not given here. Peptide text beside a SMILES is read from it. Hyp = O=C(O)[C@@H]1C[C@@H](O)CN1

How the values were obtained:
[1] = target: T1, ecdTDR (extracellular domain of TDR, residues 30–642), wild type (Arabidopsis thaliana, UniProt Q9FII5); test: ITC of synthetic TDIF/CLE peptides with wild-type ecdTDR; details: for Binding to TDR in words (relative to wild type peptide) / Kd (dissociation constant): ITC, 25°C, pH 5.5; for Binding to TDR in words (relative to wild type peptide): wild-type ecdTDR; for Kd (dissociation constant): 10 mM sodium citrate, 100 mM NaCl, 0.5–1 mM peptide titrated into 10–40 μM ecdTDR, one set of binding sites, Kd = 1/Ka
T1 sequence (Q9FII5 30-642): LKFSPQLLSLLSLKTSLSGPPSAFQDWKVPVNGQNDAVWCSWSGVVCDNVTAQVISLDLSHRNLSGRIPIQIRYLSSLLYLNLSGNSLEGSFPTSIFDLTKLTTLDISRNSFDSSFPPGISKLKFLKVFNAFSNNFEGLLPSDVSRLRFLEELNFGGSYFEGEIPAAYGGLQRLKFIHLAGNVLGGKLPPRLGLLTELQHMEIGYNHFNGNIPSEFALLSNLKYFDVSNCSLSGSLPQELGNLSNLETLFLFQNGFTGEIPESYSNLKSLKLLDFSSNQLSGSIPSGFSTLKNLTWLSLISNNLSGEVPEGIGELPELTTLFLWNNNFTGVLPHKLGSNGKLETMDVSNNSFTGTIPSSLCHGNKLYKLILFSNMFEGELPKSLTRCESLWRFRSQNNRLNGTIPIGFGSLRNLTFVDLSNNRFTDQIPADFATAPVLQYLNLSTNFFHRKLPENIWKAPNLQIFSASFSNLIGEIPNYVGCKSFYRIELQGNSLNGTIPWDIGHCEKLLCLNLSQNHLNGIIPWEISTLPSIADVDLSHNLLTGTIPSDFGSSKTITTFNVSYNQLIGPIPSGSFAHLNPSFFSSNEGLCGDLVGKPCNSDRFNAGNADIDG
Description: To elucidate the molecular basis of TDR-TDIF interaction, we expressed the extracellular domain of TDR (residues 30–642) from Arabidopsis thaliana using Bac-to-Bac baculovirus-mediated insect cell expression system (Invitrogen). DNA fragment encoding the A. thaliana TDR gene (residues 30–642) were amplified by polymerase chain reaction (PCR) from an A. thaliana Expressed Sequence Tag (EST) clone as template. The amplified DNA fragment was then cloned into a modified pFastBac1 vector with the secretion signal sequence of baculovirus gp67 glycoprotein fused to its 5’ end and an engineered 6-histidine tag at the carboxyl terminus of the TDR protein. The construct plasmid was used to transform DH10Bac (Invitrogen) competent cells to generated recombinant bacmid DNA. Then the bacmid DNA was used to transfect sf9 insect cells to generate recombinant virus which was then amplified three times to passage 3. We used 20 ml passage 3 virus to infect each liter of High Five cells with a cell density of 1.5 x 10^6 in SF900 II SFM medium (Invitrogen). The recombinant protein was expressed in High Five cells at 27°C. […] The TDR mutants were generated using a PCR-based site-directed mutagenesis kit (Invitrogen), and the mutant TDR proteins were expressed and purified as the same procedure of the wild-type TDR (30–642) protein.
ITC experiments were performed on a MicroCal Auto-iTC200 instrument. […] Experiments were carried out at 25°C in a buffer containing 10 mM sodium citrate and 100 mM NaCl at pH 5.5. The data was analyzed using ORIGIN software. The association constant (Ka), enthalpy change (ΔH), and the stoichiometry (N) were calculated by fitting the thermograms to one set of binding sites. The association constant (Ka) was calculated by fitting the thermograms to one binding site.

[2] = system: tracheary element differentiation; details: reported in vivo study; cited from earlier work
Description: There are two major anchoring sites on the TDIF peptide that are separated by Hyp4-S5-G6-Hyp7 (Fig 2). […] The side chain of H1 dips into a binding pocket of TDR formed by residues S162, G186, S187, Y188 and G210. In addition, hydrogen bonding interactions create major interactiv ... || Three TDIF residues N8, I10 and N12 form a C-terminal anchoring site (Fig 2C). Alanine substitutions of these residues N8A, I10A and N12A radically weaken their binding with TDR receptor. δ-NH2 group of N8 forms hydrogen bonds with the hydroxyl group of S305; side chain of I10 forms hydrophobic interaction with W353; δ-NH2 group of N12 forms hydrogen bonds with the hydroxyl group of S377 and carbonyl group of N12 forms a hydrogen bond with the side chain of R421.

[3] = target: ecdTDR S305A/W353A/R421A/R423A (Arabidopsis thaliana, UniProt Q9FII5, R421A/R423A/S305A/W353A); details: ITC, wild type TDIF, 25°C, pH 5.5
Description: (§1) To elucidate the molecular basis of TDR-TDIF interaction, we expressed the extracellular domain of TDR (residues 30–642) from Arabidopsis thaliana using Bac-to-Bac baculovirus-mediated insect cell expression system (Invitrogen). DNA fragment encoding the A. thaliana TDR gene (residues 30–642) were amplified by polymerase chain reaction (PCR) from an A. thaliana Expressed Sequence Tag (EST) clone as template. The amplified DNA fragment was then cloned into a modified pFastBac1 vector with the secretion signal sequence of baculovirus gp67 glycoprotein fused to its 5’ end and an engineered 6-histidine tag at the carboxyl terminus of the TDR protein. The construct plasmid was used to transform DH10Bac (Invitrogen) competent cells to generated recombinant bacmid DNA. Then the bacmid DNA was used to transfect sf9 insect cells to generate recombinant virus which was then amplified three times to passage 3. […]
(§2) ITC experiments were performed on a MicroCal Auto-iTC200 instrument. […] The data was analyzed using ORIGIN software. The association constant (Ka), enthalpy change (ΔH), and the stoichiometry (N) were calculated by fitting the thermograms to one set of binding sites. The association constant (Ka) was calculated by fitting the thermograms to one binding site.

[4] = target: ecdTDR Y234A/F279A/F281A/S305A/W353A/ R421A/R423A (Arabidopsis thaliana, UniProt Q9FII5, F279A/F281A/R421A/R423A/S305A/W353A/Y234A); details: ITC, wild type TDIF, 25°C, pH 5.5
Description: as §1, §2

[5] = target: T2, extracellular domain of A. thaliana TDR (residues 30-642) (Arabidopsis thaliana, UniProt Q9FII5 30-642, N-glycosylated at N111, N356, N378, N471 and N525 (one GlcNAc visible on each in the structures)); test: ITC; 0.5–1 mM peptide titrated into 10–40 μM ecdTDR; 25°C; 10 mM sodium citrate, 100 mM NaCl, pH 5.5; fitted to one set of binding sites; MicroCal Auto-iTC200; details: both partners purified
T2 construct: TDR/PXY (TDIF RECEPTOR / PHLOEM INTERCALATED WITH XYLEM) of A. thaliana, extracellular domain, residues 30-642; the structure models hold residues 40-625; also called ecdTDR; TDR-ECD; source: High Five insect cells (baculovirus), secreted, purified (Ni-NTA, size-exclusion chromatography)
T2 sequence (looked up): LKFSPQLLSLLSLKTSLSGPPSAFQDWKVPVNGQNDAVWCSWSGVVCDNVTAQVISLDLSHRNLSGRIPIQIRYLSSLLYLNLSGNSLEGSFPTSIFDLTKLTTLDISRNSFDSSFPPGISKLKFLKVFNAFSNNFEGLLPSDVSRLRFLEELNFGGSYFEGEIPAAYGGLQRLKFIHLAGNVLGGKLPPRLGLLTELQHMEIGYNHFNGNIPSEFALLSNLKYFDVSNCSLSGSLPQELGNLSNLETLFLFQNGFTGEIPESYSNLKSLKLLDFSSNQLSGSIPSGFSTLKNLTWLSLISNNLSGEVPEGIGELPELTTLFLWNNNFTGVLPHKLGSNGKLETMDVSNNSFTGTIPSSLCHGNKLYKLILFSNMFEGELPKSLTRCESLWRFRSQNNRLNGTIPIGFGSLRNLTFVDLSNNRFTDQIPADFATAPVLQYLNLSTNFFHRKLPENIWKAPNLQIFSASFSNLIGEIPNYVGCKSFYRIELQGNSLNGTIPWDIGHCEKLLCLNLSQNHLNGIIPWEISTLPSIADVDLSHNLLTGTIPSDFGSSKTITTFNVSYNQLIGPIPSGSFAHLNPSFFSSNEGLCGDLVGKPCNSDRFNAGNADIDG

[6] = target: T3, extracellular domain of A. thaliana TDR (residues 30-642), Q9FII5; test: ITC
T3 chain: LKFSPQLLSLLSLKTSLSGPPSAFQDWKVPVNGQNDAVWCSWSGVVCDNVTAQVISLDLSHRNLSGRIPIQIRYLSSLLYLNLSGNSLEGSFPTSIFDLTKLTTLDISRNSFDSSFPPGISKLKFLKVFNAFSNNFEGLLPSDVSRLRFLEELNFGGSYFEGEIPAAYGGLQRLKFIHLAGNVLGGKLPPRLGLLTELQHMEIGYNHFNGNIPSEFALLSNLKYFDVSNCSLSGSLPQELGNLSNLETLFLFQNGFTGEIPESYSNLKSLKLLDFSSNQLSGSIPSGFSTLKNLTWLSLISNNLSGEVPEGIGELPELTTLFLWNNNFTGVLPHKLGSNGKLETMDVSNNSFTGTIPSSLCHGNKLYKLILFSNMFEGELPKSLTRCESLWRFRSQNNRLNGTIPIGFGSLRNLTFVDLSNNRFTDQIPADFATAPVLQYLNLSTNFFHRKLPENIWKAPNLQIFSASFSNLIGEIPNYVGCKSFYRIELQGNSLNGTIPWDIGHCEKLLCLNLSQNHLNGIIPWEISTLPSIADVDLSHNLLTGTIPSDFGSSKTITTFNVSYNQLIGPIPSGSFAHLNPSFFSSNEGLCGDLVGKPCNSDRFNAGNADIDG

[7] = target: T4, extracellular domain of A. thaliana TDR (residues 30-642) (Arabidopsis thaliana, UniProt Q9FII5 30-642, N-glycosylated at N111, N356, N378, N471 and N525 (one GlcNAc visible on each in the structures)); test: ITC
T4 chain: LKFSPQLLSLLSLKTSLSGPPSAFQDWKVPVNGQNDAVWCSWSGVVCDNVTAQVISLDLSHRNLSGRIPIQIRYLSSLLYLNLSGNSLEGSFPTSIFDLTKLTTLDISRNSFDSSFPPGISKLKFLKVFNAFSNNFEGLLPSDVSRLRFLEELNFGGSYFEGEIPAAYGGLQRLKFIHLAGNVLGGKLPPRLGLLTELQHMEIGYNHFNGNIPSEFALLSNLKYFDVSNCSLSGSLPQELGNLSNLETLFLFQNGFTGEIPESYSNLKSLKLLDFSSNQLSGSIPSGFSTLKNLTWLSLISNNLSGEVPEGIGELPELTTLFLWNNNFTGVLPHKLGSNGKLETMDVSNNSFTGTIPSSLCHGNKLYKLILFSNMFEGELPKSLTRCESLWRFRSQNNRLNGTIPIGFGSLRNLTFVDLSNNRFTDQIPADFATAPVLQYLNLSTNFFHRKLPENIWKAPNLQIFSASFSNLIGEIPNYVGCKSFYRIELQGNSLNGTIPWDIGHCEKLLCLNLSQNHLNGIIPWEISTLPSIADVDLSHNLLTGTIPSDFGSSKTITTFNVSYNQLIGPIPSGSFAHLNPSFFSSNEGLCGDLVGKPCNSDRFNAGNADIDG

Sequence of ecdTDR Y234A/F279A/F281A/S305A/W353A/ R421A/R423A (Q9FII5 30-642 Y234A/F279A/F281A/S305A/W353A/R421A/R423A): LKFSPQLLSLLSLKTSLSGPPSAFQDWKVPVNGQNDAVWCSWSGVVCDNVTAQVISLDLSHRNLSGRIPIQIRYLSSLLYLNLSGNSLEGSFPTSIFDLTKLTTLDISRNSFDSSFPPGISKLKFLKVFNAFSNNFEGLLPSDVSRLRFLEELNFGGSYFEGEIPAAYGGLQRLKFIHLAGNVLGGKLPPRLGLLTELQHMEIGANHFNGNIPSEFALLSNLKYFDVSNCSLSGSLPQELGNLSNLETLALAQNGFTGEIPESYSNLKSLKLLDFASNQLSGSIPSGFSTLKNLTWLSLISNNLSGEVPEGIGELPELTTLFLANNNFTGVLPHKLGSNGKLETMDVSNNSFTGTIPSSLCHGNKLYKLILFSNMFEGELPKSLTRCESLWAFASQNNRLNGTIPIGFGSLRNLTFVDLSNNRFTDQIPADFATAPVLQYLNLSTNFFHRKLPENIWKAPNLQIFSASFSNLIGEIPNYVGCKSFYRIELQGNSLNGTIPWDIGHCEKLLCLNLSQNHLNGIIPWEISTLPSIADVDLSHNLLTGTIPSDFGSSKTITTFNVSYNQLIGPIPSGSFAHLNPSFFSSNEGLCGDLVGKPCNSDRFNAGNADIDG
Sequence of ecdTDR S305A/W353A/R421A/R423A (Q9FII5 30-642 S305A/W353A/R421A/R423A): as the sequence (Q9FII5 30-642 Y234A/F279A/F281A/S305A/W353A/R421A/R423A) above, with A205Y, A250F, A252F counted along it

## CLE42: CLE peptide in which the E2 of TDIF has been replaced with glycine (HGVPSGPNPISN) [reference compound]
[1]
  Binding to TDR in words (relative to wild type peptide): does not influence the binding significantly

## TDIF-H1A/E2A/V3A/N8A/I10A/N12A: TDIF mutant peptide, both anchoring sites mutated (AAAPSGPAPASA; not fully specified (residues 4, 7))
[1]
  Kd (dissociation constant): No binding
  Binding to TDR in words (relative to wild type peptide): no binding

## CC[C@H](C)[C@H](NC(=O)[C@@H]1CCCN1C(=O)[C@H](CC(N)=O)NC(=O)[C@@H]1C[C@@H](O)CN1C(=O)CNC(=O)[C@H](CO)NC(=O)[C@@H]1C[C@@H](O)CN1C(=O)[C@@H](NC(=O)[C@H](CCC(=O)O)NC(=O)[C@@H](N)Cc1c[nH]cn1)C(C)C)C(=O)N[C@@H](CO)C(=O)N[C@@H](C)C(=O)O [TDIF-N12A] (H-HEV[Hyp]SG[Hyp]NPISA-OH)
[1]
  Kd: 4.69 ± 0.47 µM

## TDIF-P9A: TDIF mutant peptide, P9A (HEV[Hyp]SG[Hyp]NAISN)
[2]
  Effect on inhibition of tracheary element differentiation, in words: significant in effect

## CC[C@H](C)[C@H](NC(=O)[C@@H]1CCCN1C(=O)[C@H](CC(N)=O)NC(=O)[C@@H]1C[C@@H](O)CN1C(=O)CNC(=O)[C@H](CO)NC(=O)[C@@H]1C[C@@H](O)CN1C(=O)[C@@H](NC(=O)[C@H](CCC(=O)O)NC(=O)[C@@H](N)Cc1c[nH]cn1)C(C)C)C(=O)N[C@@H](CO)C(=O)N[C@@H](CC(N)=O)C(=O)O [TDIF, Tracheary Element Differentiation Inhibitory Factor] (H-HEV[Hyp]SG[Hyp]NPISN-OH)
[3]
  Kd: no measurable binding
[4]
  Kd: no measurable binding

## TDIF-H1A/E2A/V3A/N12A: TDIF mutant peptide (AAAPSGPNPISA; not fully specified (residues 4, 7))
[1]
  Kd (dissociation constant): No binding
  Binding to TDR in words (relative to wild type peptide): no binding

## CC(C)[C@H](NC(=O)[C@H](CCC(=O)O)NC(=O)[C@@H](N)Cc1c[nH]cn1)C(=O)N1C[C@H](O)C[C@H]1C(=O)N[C@@H](CO)C(=O)NCC(=O)N1C[C@H](O)C[C@H]1C(=O)N[C@@H](C)C(=O)N1CCC[C@H]1C(=O)N[C@@H](C)C(=O)N[C@@H](CO)C(=O)N[C@@H](C)C(=O)O [TDIF-N8A/I10A/N12A] (H-HEV[Hyp]SG[Hyp]APASA-OH)
[1]
  Kd: 11.1 ± 1.84 µM

## TDIF-S11A: TDIF mutant peptide, S11A substitution (HEVPSGPNPIAN; not fully specified (residues 4, 7))
[1]
  Binding to TDR in words (relative to wild type peptide): barely affects the binding affinity

## CLE46: CLE peptide with E2K, V3H, I10T and S11G substitutions relative to TDIF (HKHPSGPNPTGN) [reference compound]
[1]
  Kd (dissociation constant): No binding
  Binding to TDR in words (relative to wild type peptide): no measurable binding; also recorded: unable to bind TDR

B1: TDIF-N8A/I10A/N12A peptide (peptide)
peptide: HEV[Hyp]SG[Hyp]APASA
notes: TDIF (CLE41/CLE44 peptide) of A. thaliana; numbers count on: the 12-residue peptide
[5]
  Kd: ~11 µM
  fold lower affinity than wild-type TDIF: ~110 fold

## HLVPSGPNPLHN [CLE9 peptide R1H]
[6]; chain shown with the change
  ratio to parent: -46.6
[6]; chain shown with the change, parent: […]
  other: fold change in Kd against wild type TDIF: 2.1
[6]; chain shown with the change;, parent: 10215 ± 6281 nM
  Kd: 0.219 µM

## RLVPSGPNPLHN [CLE9 peptide]
[7]
  Kd: 10.2 µM

B2: CLE42 peptide (peptide)
peptide: HGVPSGPNPISN
notes: CLE42 peptide of A. thaliana; numbers count on: the 12-residue peptide
[5]
  binding result: binds

B3: TDIF-P9A mutant peptide (peptide)
peptide: HEV[Hyp]SG[Hyp]NAISN
notes: as for B1
[5]
  fold decrease in binding against wild-type TDIF: 2 fold

B4: TDIF S11A mutant peptide (peptide)
peptide: HEV[Hyp]SG[Hyp]NPIAN
notes: as for B1
[5]
  binding result: binds

B5: G6T TDIF mutant peptide (peptide)
peptide: HEV[Hyp]ST[Hyp]NPISN
notes: as for B1
[5]
  fold lower affinity than wild-type TDIF: 20.1 fold

B6: TDIF E2R mutant peptide (peptide)
peptide: HRV[Hyp]SG[Hyp]NPISN
notes: as for B1
[5]
  fold increase in Kd over wild-type TDIF: 5.3 fold

B7: TDIF V3A mutant peptide (peptide)
peptide: HEA[Hyp]SG[Hyp]NPISN
notes: as for B1
[5]
  fold lower affinity than wild-type TDIF: 11.1 fold

B8: TDIF peptide with alanine substitution of S5 (peptide)
peptide: HEV[Hyp]AG[Hyp]NPISN
notes: TDIF (CLE41/CLE44 peptide) of A. thaliana; numbers count on: the 12-residue peptide; also called S5 alanine mutant
[5]
  binding result: binds

B9: G6A TDIF mutant peptide (peptide)
peptide: HEV[Hyp]SA[Hyp]NPISN
notes: as for B1
[5]
  fold lower affinity than wild-type TDIF: 13.9 fold

B10: TDIF E2A mutant peptide (peptide)
peptide: HAV[Hyp]SG[Hyp]NPISN
notes: as for B1
[5]
  fold increase in Kd over wild-type TDIF: 3.2 fold

B11: TDIF-H1R peptide (peptide)
peptide: REV[Hyp]SG[Hyp]NPISN
notes: TDIF (CLE41/CLE44 peptide) of A. thaliana; numbers count on: the 12-residue peptide; also called printed once as 'R1H substitution of TDIF'; source: synthetic peptide
[5]
  fold lower affinity than wild-type TDIF: 3.2 fold

B12: TDIF peptide with alanine substitution of Hyp7 (peptide)
peptide: HEV[Hyp]SGANPISN
notes: TDIF (CLE41/CLE44 peptide) of A. thaliana; numbers count on: the 12-residue peptide; also called Hyp7 alanine mutant
[5]
  binding result: binds

B13: TDIF H1A mutant peptide (peptide)
peptide: AEV[Hyp]SG[Hyp]NPISN
notes: as for B1
[5]
  fold lower affinity than wild-type TDIF: ~115 fold

B14: TDIF peptide with alanine substitution of Hyp4 (peptide)
peptide: HEVASG[Hyp]NPISN
notes: TDIF (CLE41/CLE44 peptide) of A. thaliana; numbers count on: the 12-residue peptide; also called Hyp4 alanine mutant
[5]
  binding result: binds
